B1: Vinculin (Gallus gallus (Chicken)), P12003-1 (parent)
chain: MPVFHTRTIESILEPVAQQISHLVIMHEEGEVDGKAIPDLTAPVSAVQAAVSNLVRVGKETVQTTEDQILKRDMPPAFIKVENACTKLVRAAQMLQADPYSVPARDYLIDGSRGILSGTSDLLLTFDEAEVRKIIRVCKGILEYLTVAEVVETMEDLVTYTKNLGPGMTKMAKMIDERQQELTHQEHRVMLVNSMNTVKELLPVLISAMKIFVTTKNTKSQGIEEALKNRNFTVEKMSAEINEIIRVLQLTSWDEDAWASKDTEAMKRALALIDSKMNQAKGWLRDPNAPPGDAGEQAIRQILDEAGKAGELCAGKERREILGTCKTLGQMTDQLADLRARGQGATPMAMQKAQQVSQGLDLLTAKVENAARKLEAMTNSKQAIAKKIDAAQNWLADPNGGSEGEEHIRGIMSEARKVAELCEEPKERDDILRSLGEISALTAKLSDLRRHGKGDSPEARALAKQIATSLQNLQSKTNRAVANTRPVKAAVHLEGKIEQAQRWIDNPTVDDRGVGQAAIRGLVAEGRRLANVMMGPYRQDLLAKCDRVDQLAAQLADLAARGEGESPQARAIAAQLQDSLKDLKARMQEAMTQEVSDVFSDTTTPIKLLAVAATAPSDTPNREEVFEERAANFENHAARLGATAEKAAAVGTANKTTVEGIQATVKSARELTPQVVSAARILLRNPGNQAAYEHFETMKNQWIDNVEKMTGLVDEAIDTKSLLDASEEAIKKDLDKCKVAMANMQPQMLVAGATSIARRANRILLVAKREVENSEDPKFREAVKAASDELSKTISPMVMDAKAVAGNISDPGLQKSFLDSGYRILGAVAKVREAFQPQEPDFPPPPPDLEHLHLTDELAPPKPPLPEGEVPPPRPPPPEEKDEEFPEQKAGEAINQPMMMAARQLHDEARKWSSKGNDIIAAAKRMALLMAEMSRLVRGGSGNKRALIQCAKDIAKASDEVTRLAKEVAKQCTDKRIRTNLLQVCERIPTISTQLKILSTVKATMLGRTNISDEESEQATEMLVHNAQNLMQSVKETVREAEAASIKIRTDAGFTLRWVRKTPWYQ

Variants of: B1
Conditions: with acts_rabit ACTA1, P68135

Variant | effect of a mutation on the interaction
I997A | decreasing interaction strength
V1001A | decreasing interaction strength

Source: IntAct's records for PubMed 24685146
